The values that follow are results of earlier work, collected in paper PMC6201748.

This series addresses ZipA (Escherichia coli) (UniProt P77173). Kind of series: SPR. Background: Surface plasmon resonance follows binding to a sensor surface in real time, without labels.

Sequence of FtsZ (P0A9A6 whole entry): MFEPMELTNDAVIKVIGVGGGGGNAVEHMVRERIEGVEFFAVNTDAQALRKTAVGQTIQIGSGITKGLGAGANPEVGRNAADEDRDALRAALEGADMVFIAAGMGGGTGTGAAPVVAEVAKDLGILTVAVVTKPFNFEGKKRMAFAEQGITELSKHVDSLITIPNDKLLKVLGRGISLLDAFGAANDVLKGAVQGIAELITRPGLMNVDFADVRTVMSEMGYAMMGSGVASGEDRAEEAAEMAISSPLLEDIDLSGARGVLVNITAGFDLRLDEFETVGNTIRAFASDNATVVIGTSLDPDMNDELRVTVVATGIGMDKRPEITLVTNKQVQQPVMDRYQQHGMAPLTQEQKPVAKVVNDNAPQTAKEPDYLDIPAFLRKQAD

Take FtsZ (from UniProt P0A9A6): the Kd is 7 µM.

As a reminder, the Kd is the free concentration of one partner at which half of the binding sites on the other are occupied at equilibrium, for simple one-to-one binding.
